Source: patent US20220089784A1 (University of California, published 2022)
Substitutions are numbered along the chain they refer to.

T1: BoNT/C1 holotoxin (Clostridium botulinum, UniProt P18640 2-1291)
T1 sequence: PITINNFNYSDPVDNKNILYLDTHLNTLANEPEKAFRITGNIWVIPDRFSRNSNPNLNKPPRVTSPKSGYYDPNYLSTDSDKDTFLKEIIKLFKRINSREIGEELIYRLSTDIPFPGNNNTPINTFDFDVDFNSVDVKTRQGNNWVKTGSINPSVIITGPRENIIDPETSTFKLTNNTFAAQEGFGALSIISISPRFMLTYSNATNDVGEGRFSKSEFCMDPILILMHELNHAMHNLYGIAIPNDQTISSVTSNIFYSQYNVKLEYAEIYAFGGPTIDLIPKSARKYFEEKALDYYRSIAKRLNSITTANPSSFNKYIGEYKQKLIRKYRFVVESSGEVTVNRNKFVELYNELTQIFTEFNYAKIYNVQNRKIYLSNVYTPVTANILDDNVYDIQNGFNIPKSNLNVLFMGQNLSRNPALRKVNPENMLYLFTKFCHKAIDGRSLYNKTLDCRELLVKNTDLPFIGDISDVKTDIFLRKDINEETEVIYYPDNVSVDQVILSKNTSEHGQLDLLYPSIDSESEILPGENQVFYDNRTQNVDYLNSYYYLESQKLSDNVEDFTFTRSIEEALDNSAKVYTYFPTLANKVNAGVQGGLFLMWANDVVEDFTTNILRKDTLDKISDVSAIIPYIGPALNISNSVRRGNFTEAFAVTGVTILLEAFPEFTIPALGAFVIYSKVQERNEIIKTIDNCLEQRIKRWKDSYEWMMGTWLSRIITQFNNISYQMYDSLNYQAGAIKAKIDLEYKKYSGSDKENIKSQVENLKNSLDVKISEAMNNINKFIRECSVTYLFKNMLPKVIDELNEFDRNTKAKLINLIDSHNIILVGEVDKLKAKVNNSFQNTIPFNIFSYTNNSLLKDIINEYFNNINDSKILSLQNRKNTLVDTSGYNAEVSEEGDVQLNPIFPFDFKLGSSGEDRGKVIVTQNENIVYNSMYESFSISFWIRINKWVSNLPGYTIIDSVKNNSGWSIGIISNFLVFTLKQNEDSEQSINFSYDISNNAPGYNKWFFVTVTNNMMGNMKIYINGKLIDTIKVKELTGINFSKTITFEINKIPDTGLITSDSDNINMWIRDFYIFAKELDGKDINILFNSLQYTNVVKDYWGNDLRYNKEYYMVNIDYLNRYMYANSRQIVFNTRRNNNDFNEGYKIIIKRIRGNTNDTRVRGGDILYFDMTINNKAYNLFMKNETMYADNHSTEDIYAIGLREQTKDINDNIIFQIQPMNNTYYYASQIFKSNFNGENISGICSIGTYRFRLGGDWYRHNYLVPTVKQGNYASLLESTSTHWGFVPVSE

T2: BoNT/D (Clostridium botulinum, UniProt P19321 2-1276)
T2 sequence: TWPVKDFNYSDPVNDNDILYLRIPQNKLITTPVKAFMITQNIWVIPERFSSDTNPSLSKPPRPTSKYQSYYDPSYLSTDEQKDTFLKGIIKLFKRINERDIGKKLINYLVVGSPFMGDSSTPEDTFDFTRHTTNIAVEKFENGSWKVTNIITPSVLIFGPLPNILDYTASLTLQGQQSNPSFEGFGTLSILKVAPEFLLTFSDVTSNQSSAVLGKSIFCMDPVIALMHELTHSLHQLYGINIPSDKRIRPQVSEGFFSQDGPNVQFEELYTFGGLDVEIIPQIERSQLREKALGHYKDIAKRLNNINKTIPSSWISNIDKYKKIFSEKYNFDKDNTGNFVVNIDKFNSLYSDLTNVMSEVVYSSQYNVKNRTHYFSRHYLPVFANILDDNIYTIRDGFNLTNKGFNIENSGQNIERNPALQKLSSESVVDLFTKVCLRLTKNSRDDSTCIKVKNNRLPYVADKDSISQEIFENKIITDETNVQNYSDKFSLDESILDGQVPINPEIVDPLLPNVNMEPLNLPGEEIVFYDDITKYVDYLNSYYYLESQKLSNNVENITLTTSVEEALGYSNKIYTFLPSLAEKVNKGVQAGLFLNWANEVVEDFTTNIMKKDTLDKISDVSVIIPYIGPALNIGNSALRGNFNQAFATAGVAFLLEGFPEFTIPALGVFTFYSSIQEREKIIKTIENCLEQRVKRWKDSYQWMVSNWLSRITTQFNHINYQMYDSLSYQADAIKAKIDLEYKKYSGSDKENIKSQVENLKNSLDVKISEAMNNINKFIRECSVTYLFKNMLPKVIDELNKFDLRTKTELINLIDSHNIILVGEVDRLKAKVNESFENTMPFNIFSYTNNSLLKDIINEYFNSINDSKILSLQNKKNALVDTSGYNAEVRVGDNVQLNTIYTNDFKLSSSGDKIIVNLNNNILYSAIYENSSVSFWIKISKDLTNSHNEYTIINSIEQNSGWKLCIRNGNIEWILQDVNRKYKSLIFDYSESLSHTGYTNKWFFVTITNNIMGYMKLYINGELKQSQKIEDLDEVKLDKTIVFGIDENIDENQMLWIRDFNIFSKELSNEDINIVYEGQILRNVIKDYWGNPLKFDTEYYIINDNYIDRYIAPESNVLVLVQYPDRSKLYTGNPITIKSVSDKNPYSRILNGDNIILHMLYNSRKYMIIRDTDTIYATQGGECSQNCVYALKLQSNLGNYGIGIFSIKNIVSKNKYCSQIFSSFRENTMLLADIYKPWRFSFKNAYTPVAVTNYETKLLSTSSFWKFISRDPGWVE

B1: 8D2 scFv (scFv, V domains shown)
VH: QVQLVQSGAEVKKPGESLKISCKGSGYSFTSYWIGWVRQMPGKGLEWMGIIYPGDSDTRYSPSFQGQVTISADKSISTAYLQWSSLKASDTAMYYCVSYSSLDAFDIWGQGTMVTVSS
VL: EIVLTQSPSSLSASVGDRVTITCQASQDISNSLCWYQQKPGKAPKLLIYDASNLETGVPSRFSGSGSGTDFIFTISSLQPEDIATYYCQQYDNLLRVFGGGTKLEIK
notes: human
B2: 8DC13 scFv (scFv, V domains shown)
VH: QVQLVQSGAEVKKPGASVKVSCKASGYTFTGYYIHWVRQAPGQGLEWMGRINPNSGGANYAHKFQGRVTMTRDTSSNTAYMEVSRLKSDDTAVYYCARRRAVANLDYHYYGMDVWGQGTTVTVSS
VL: DIVMTQSPSTLSASVGARVTITCRASQNINTYLNWYHQKPGKAPKLLIYAASSLQSGVPSRFSGSGSGTDFTLTISSLQPEDFATYYCQQSYSTPHTFGGGTKLEIK
notes: human
B3: 8DC14 scFv (scFv, V domains shown)
VH: QVQLVQSGGGVVQPGRSLRLSCVASGFTFSSYTMHWVRQAPGEGLEWVAGISNDGRNQYYSDSVKGRATISRDNSKDTLYLQMHSLRAEDTAVYYCAKANYHFILATTFHSWGQGTLVTVSS
VL: DIVMTQSPSSVSASVGDRVTITCRASQGISSWLAWYQQKPGKAPKLLIYAASSLQSGVPSRFSGSGSGTDFTLTISRLQPEDVATYYCQRYNSLPFTFGGGTKLEIK
notes: human
B4: 8DC6 scFv (scFv, V domains shown)
VH: EVQMVESGGGVVQPGRSLRLSCAASGFTFTSYAMHWVRQAPGKGLEWVAMISNDESNTKYADSVKGRFTISRDNSKNTLFLQMNSLRAEDTAMYSCARGGYYTRPLAFDTWGPGTTVTVSS
VL: B3 VL with I2V, W32Y, A43V, S56R, R90K, L94A, F96L, L104V
notes: human
B5: 8DC11 scFv (scFv, V domains shown)
VH: QVQLVESGPGLVKPSQTLSLSCTVSGGSVNHYYWNWIRQPPGKGLEWIGYIFYNGRTNYNPSLKSRVTMSVDTSKNQISLKLRSVTAADTAVYYCAREGARGYCSSTSCHDAFDIWGRGTLVTVSS
VL: EIVLTQSPSFLSASVGDRVTITCRASQGIRNDLAWFQQKPGKAPKLLIYATSTLQSGVPSRFSGSGSGTDFTLTISSLQPEDFADYYCQQAASFPLTFGGGTKVDIK
notes: human
B6: 8DC12 scFv (scFv, V domains shown)
VH: QVQLVQSGGGVVQPGRSLRLSCAASGFTFSSYGMHWVRQAPGKGLEWVAAISYDGSNKYYADSVKGRFTISRDNSKNTLYLQMNSLRAEDTAVYYCAKGEHFVVVTAFATWGQGTLVTVSS
VL: DIVMTQSPSFLSASIGDRVTITCRASQSISNWLAWYQQKPGKAPKVLVYKASSLENGVPSRFSGSGSGTDFTLTITSLQPDDFATYYCQQYNAYPLTFGGGTKVEIK
notes: human
B7: 8DC8.6 scFv (scFv, V domains shown)
VH: QVQLQQSGPGLVKPSETLSLTCTVSGGSISSAGYSWSWIRQSPGKGLECLGYIYQTGSTFYNLSLKGRVTMSLDRSKNQISLRLTSVVAADTAVYYCARVVGVYPGWFDSWGQGTLVTVSS
VL: DIQMTQSPSSLSASVGDRVTITCRASQGVSTDLAWYQQKPGRAPKLLIYRASSLQSGVPSRFSGSGSGTDFTLTISSLQPDDLATYYCQHYESYSPWTFGQGTQGEIK
notes: human
B8: 8DC8.3 scFv (scFv, V domains shown)
VH: B7 VH
VL: DIVMTQSPSSLSASVGDRVTITCRASQSVSRWLAWYQQKPGKPPKLLIYEASSLESGVPSRFSGSGSGTDFTLTITSLQPEDFATYYCQQYENLPPSTFGGGTKLEIK
notes: human
B9: 8DC8 scFv (scFv, V domains shown)
VH: B7 VH
VL: DIVMTQSPSTLSASVGDRVTITCRASQSINIWMAWYQQKPGKAPKLLVYKASSLESGVPSRFSGSGSGTEFTLTISSLQPDDFATYYCQQYNSYGTFGKGTKVEIK
notes: human
B10: 8DC10 scFv (scFv, V domains shown)
VH: QVQLVQSGAEAKKPGASVKLSCQASGYTFTGYAIHWVRQAPGQRLEWLGWINCVNGNTKYSPKLPGRVTITRDTSATTAYLELNSLTSEDTAVYYCARSMLVAARVYYYYGMDVWGQGTMVTVSS
VL: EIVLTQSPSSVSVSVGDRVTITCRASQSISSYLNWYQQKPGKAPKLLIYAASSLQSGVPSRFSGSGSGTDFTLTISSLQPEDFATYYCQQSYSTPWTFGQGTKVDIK
notes: human
B11: 8DC7 scFv (scFv, V domains shown)
VH: QVQLVQSGGRLVRPGGSLRLSCAASGFVFSNYGMHWVRQAPGKGLEWVAFLTHGGTNKYYSDSVKGRLTISRDNAKSTLFLEVNSLRVEDTAIYYCVKEGQLDSKYYFDSWGQGTLVTVSS
VL: EIVLTQSPSSLSASVGDRVTITCRASQSISSYLAWYQQKPGKAPELLIYAASTLQSGVPSRFSGSGSGTDFTLTISSVQPEDFATYYCQQSYSTPFTFGQGTKVEIK
notes: human
B12: 8DC3.1 scFv (scFv, V domains shown)
VH: QVQLVQSRGGLVKPGGSLRLSCAASGFTFSSHSMNWVRQAPGKGLEWVSSISSSSSYIYYADSVKGRFTISRDNSKNSLYLQLNSLRAEDTAVYYCARDQGGGSVVGTNWFDPWGQGTLVTVSS
VL: SALTQPASVSGSPGQSVTISCTGTSSDVGGYNYVSWYQQHPGKAPKLMIYDVSKRPSGVPDRFSGSKSGNTASLTISGLQAEDEADYYCCSYAGRYTYVFGTGTKVTVL
notes: human

target: T1, BoNT/C1 holotoxin; assay: yeast scFv FACS

Q: Does B1 bind?
A: Result: no binding (tested: ~1 µM)

Q: Does B2 bind?
A: Result: no binding (tested: ~1 µM)

Q: Does B3 bind?
A: Result: no binding (tested: ~1 µM)

Q: Does B4 bind?
A: Result: no binding (tested: ~1 µM)

Q: Does B5 bind?
A: Result: no binding (tested: ~1 µM)

Q: Does B6 bind?
A: Result: no binding (tested: ~1 µM)

Q: Does B7 bind?
A: Result: no binding (tested: ~1 µM)

Q: Does B8 bind?
A: Result: no binding (tested: ~1 µM)

Q: Does B9 bind?
A: Result: no binding (tested: ~1 µM)

Q: Does B10 bind?
A: Result: no binding (tested: ~1 µM)

Q: Does B11 bind?
A: Result: no binding (tested: ~1 µM)

Q: Does B12 bind?
A: Result: no binding (tested: ~1 µM)

target: T2, BoNT/D; assay: yeast scFv FACS

Q: Does B2 bind?
A: Result: binds

Q: Does B3 bind?
A: Result: binds

Q: Does B5 bind?
A: Result: binds

Q: Does B6 bind?
A: Result: binds

Q: Does B7 bind?
A: Result: binds

Q: Does B10 bind?
A: Result: binds

Q: Does B11 bind?
A: Result: binds

Q: Does B12 bind?
A: Result: binds
